Results on one protein are retold here after paper PMC2773002, “Differential Role of Human Choline Kinase α and β Enzymes in Lipid Metabolism: Implications in Cancer Onset and Treatment” (PLoS ONE, 2009).

Substrate in data set [1]: C[N+](C)(C)CCO
The experiment in a line: Michaelis-Menten kinetics (Km), radiolabelled substrate, extracts of E. coli expressing the recombinant enzyme. Format: biochemical, Homo sapiens. Particulars: ATP, MgCl2.

Substrate in data set [2]: NCCO
Described as above. Particulars: ATP, MgCl2. Format: biochemical, Homo sapiens.

B1: ChoKβ (choline kinase beta, ChoKβ1) (Homo sapiens) (protein)
chain: AAEATAVAGSGAVGGCLAKDGLQQSKCPDTTPKRRRASSLSRDAERRAYQWCREYLGGAWRRVQPEELRVYPVSGGLSNLLFRCSLPDHLPSVGEEPREVLLRLYGAILQGVDSLVLESVMFAILAERSLGPQLYGVFPEGRLEQYIPSRPLKTQELREPVLSAAIATKMAQFHGMEMPFTKEPHWLFGTMERYLKQIQDLPPTGLPEMNLLEMYSLKDEMGNLRKLLESTPSPVVFCHNDIQEGNILLLSEPENADSLMLVDFEYSSYNYRGFDIGNHFCEWVYDYTHEEWPFYKARPTDYPTQEQQLHFIRHYLAEAKKGETLSQEEQRKLEEDLLVEVSRYALASHFFWGLWSILQASMSTIEFGYLDYAQSRFQFYFQQKGQLTSVHSSS
notes: human ChoKβ1 expressed in E. coli DH5α (extracts)
By Km is commonly meant the substrate concentration at which the rate is half of its maximum. On to B1, for which the results for the Km in data set [1] and in data set [2] were 570 µM and 2010 µM, respectively.
